Read-outs that look alike come from different tables or passages of the source.
How the values were obtained:
[1] = target: T1, P467_RHIPU (Rhipicephalus pulchellus, UniProt L7M8Z8 22-127); assay: BLI
T1 sequence: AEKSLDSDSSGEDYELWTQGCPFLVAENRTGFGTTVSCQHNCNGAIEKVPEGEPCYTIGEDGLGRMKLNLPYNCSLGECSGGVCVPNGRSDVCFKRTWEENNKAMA

[2] = target: T2, P1243_AMBAM (Amblyomma americanum, UniProt A0A0C9S461 26-123); assay: BLI
T2 sequence: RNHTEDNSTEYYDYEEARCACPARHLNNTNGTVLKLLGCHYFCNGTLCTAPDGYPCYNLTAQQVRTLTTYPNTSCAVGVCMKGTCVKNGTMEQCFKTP

[3] = target: T3, P985_AMBPA (Amblyomma parvum, UniProt A0A023FT45 25-132); assay: BLI
T3 sequence: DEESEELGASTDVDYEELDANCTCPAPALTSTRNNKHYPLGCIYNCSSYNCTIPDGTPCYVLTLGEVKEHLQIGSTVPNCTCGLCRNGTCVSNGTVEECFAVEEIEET

[4] = target: T4, P991_AMBCA (Amblyomma cajennense, UniProt A0A023FFD0 29-136); assay: BLI
T4 sequence: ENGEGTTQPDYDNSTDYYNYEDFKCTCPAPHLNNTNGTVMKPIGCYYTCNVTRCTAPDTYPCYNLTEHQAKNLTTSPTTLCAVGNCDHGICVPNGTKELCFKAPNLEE

[5] = target: T2, P1243_AMBAM; assay: BLI; remark: listed apart in the source
[6] = target: T5, CXCL10_HUMAN (human, UniProt P02778 22-98); assay: BLI
T5 sequence: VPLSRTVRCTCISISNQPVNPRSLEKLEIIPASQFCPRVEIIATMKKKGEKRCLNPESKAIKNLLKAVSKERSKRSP

[7] = target: T6, CXCL11_HUMAN (human, UniProt O14625 22-94); assay: BLI
T6 sequence: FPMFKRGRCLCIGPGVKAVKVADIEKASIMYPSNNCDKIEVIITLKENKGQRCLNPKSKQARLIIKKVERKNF

[8] = target: CXCL12_HUMAN (human, UniProt P48061 22-89); assay: BLI
Sequence of CXCL12_HUMAN (P48061 22-89 limits assumed): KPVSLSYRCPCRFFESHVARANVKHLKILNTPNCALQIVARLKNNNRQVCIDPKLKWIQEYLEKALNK

[9] = target: T7, CXCL14_HUMAN (human, UniProt O95715 35-111); assay: BLI
T7 sequence: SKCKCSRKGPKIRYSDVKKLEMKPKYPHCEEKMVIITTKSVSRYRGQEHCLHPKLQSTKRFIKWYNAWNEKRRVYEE

[10] = target: T8, CXCL7_HUMAN (human, UniProt P02775 59-128); assay: BLI [Cont.]
T8 sequence: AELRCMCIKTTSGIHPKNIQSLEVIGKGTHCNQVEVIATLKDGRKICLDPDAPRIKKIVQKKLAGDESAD

[11] = target: T9, CXCL8_HUMAN (human, UniProt P10145 28-99); assay: BLI [Cont.]
T9 sequence: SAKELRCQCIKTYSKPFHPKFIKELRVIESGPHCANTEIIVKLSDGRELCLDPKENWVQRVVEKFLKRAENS

[12] = target: T10, CXCL4_HUMAN (human, UniProt P02776 32-101); assay: BLI [Cont.]
T10 sequence: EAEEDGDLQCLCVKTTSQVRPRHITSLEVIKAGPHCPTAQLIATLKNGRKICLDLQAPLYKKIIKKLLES

[13] = target: T11, CXCL9_HUMAN (human, UniProt Q07325 23-125); assay: BLI
T11 sequence: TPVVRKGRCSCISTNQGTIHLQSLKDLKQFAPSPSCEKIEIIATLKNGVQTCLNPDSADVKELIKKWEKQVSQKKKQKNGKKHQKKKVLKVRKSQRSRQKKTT

[14] = target: T12, CXCL13_HUMAN (human, UniProt O43927 23-109); assay: BLI
T12 sequence: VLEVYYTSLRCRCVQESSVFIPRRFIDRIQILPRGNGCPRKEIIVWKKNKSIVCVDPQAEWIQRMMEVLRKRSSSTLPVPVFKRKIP

[15] = target: T13, CXCL1_HUMAN (human, UniProt P09341 35-107); assay: yeast surface display FACS re-test; further: test concentration or dose not given here
T13 sequence: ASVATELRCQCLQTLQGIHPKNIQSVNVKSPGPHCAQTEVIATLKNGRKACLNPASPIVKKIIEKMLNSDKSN

[16] = target: T14, P546_AMBCA (Amblyomma cajennense, UniProt A0A023FBW7 22-118); assay: BLI
T14 sequence: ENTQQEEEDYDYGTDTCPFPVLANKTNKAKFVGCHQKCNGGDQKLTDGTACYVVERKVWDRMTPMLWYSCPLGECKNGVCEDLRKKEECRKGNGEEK

[17] = target: T15, P1180_AMBTR (Amblyomma triste, UniProt A0A023G6B6 26-116); assay: BLI
T15 sequence: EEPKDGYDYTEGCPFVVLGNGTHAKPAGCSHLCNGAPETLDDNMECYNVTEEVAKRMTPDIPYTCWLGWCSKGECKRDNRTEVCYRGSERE

[18] = target: T16, P1181_AMBMA (Amblyomma maculatum, UniProt G3MIX6 26-115); assay: BLI
T16 sequence: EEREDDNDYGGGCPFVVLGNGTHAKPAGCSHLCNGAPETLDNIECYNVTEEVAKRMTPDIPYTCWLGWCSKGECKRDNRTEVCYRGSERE

[19] = target: T17, P1182_AMBMA (Amblyomma maculatum, UniProt G3MJ83 27-115); assay: BLI
T17 sequence: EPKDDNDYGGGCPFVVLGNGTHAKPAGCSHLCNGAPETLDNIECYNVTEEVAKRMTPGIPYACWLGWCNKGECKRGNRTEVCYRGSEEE

[20] = target: T18, P974_AMBCA (Amblyomma cajennense, UniProt A0A023FDY8 22-118); assay: BLI
T18 sequence: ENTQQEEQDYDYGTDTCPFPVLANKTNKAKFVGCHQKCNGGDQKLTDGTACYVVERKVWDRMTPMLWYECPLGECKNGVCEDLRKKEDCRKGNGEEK

B1: CCL5_HUMAN (ligand)
chain: SPYSSDTTPCCFAYIARPLPRAHIKEYFYTSGKCSNPAVVFVTRKNRQVCANPEKKWVREYINSLEMS
Q: With B1 as the binder, how does the Kd [1] read?
A: 7.67 nM

Q: What about the Kd [2] of the same binder?
A: 1.74 nM

Q: And the Kd [3]?
A: 3.5 nM

Q: What about the Kd [4] of the same binder?
A: 1.47 nM

Q: And the Kd [5]?
A: 1.74 nM

B2: P458_IXORI (other)
chain: GSKQPGAAGSSSDSVEAVFCPTNCTKGTNGAWSGCSDDCICVHVGENTEGSCMKFSGDYDYPTPEA
Q: Does B2 bind [6]?
A: no binding (tested: 300 nM)

Q: Does B2 bind [7]?
A: no binding (tested: 300 nM)

Q: Does B2 bind [8]?
A: no binding (tested: 300 nM)

Q: Does B2 bind [9]?
A: no binding (tested: 300 nM)

Q: Does B2 bind [10]?
A: no binding (tested: 300 nM)

Q: Does B2 bind [11]?
A: no binding (tested: 300 nM)

Q: Does B2 bind [12]?
A: no binding (tested: 300 nM)

B3: P1166_IXORI (other)
chain: GPETKEDKKSDVYELFTVEYCGTNCTLLTNGRWTACTGKKGTCRCYHESGEKVGLCLSTEYTDFSEYPNPKSSEIDAAAPLPRETH
Q: Does B3 bind [13]?
A: no binding (tested: 300 nM)

Q: Does B3 bind [8]?
A: no binding (tested: 300 nM)

Q: Does B3 bind [14]?
A: no binding (tested: 300 nM)

Q: What about the “% cells over threshold fluorescence” value [15] of the same binder?
A: 63%

B4: P1095_IXORI (other)
chain: HSPVAGSEVQKLTSDPNDDIDVSYCGMNCTVVNGKSDECSENCKCLHEGDDPKGICVAITYFGDWGDPNDDPKINEATPQTQIFEKKRK
Q: Does B4 bind [13]?
A: no binding (tested: 300 nM)

B5: CCL18_HUMAN (ligand)
chain: AQVGTNKELCCLVYTSWQIPQKFIVDYSETSPQCPKPGVILLTKRGRQICADPNKKWVQKYISDLKLNA
Q: For B5, which Kd [1] is on record?
A: 16.6 nM

Q: What about the Kd [16] of the same binder?
A: 16 nM

Q: And the Kd [17]?
A: 5.8 nM

Q: And the Kd [18]?
A: 10 nM

Q: And the Kd [19]?
A: 33 nM

Q: And the Kd [2]?
A: 0.00501 nM

Q: What about the Kd [20] of the same binder?
A: 17 nM

Q: And the Kd [3]?
A: 430 nM

Q: What about the Kd [4] of the same binder?
A: 0.209 nM

Q: And the Kd [5]?
A: 0.005 nM

B6: CCL17_HUMAN (ligand)
chain: ARGTNVGRECCLEYFKGAIPLRKLKTWYQTSEDCSRDAIVFVTVQGRAICSDPNNKRVKNAVKYLQSLERS
Q: How did the Kd [16] turn out when B6 was run?
A: 70 nM

Q: And the Kd [2]?
A: 0.734 nM

Q: And the Kd [20]?
A: 70.6 nM

Q: And the Kd [4]?
A: 7.66 nM

Q: And the Kd [5]?
A: 0.734 nM

B7: P1100_IXORI (other)
chain: GSKGSSASQSSDNSVVAKFCDTNCTINEGGKWTECKGGCFCVHVGNETVGRCMKLDGDYDYPSPKPEE
Q: Does B7 bind [8]?
A: no binding (tested: 300 nM)

Q: Does B7 bind [9]?
A: no binding (tested: 300 nM)

Q: Does B7 bind [10]?
A: no binding (tested: 300 nM)

Q: Does B7 bind [11]?
A: no binding (tested: 300 nM)

Q: Does B7 bind [12]?
A: no binding (tested: 300 nM)

B8: CCL27_HUMAN (ligand)
chain: FLLPPSTACCTQLYRKPLSDKLLRKVIQVELQEADGDCHLQAFVLHLAQRSICIHPQNPSLSQWFEHQERKLHGTLPKLNFGMLRKMG
Q: With B8 as the binder, how does the Kd [2] read?
A: 15.1 nM

Q: And the Kd [5]?
A: 15.1 nM

B9: P1124_IXORI (other)
chain: DSKGTSDSQDSTKSIKVDFCETNCTKTDGGWTGCTGDCICVSVGDSIEGRCMDFG
Q: Does B9 bind [6]?
A: no binding (tested: 300 nM)

Q: Does B9 bind [7]?
A: no binding (tested: 300 nM)

Q: What about the Kd [8] of the same binder?
A: 212 nM

Q: Does B9 bind [9]?
A: no binding (tested: 300 nM)

Q: Does B9 bind [10]?
A: no binding (tested: 300 nM)

Q: Does B9 bind [11]?
A: no binding (tested: 300 nM)

Q: Does B9 bind [12]?
A: no binding (tested: 300 nM)

B10: P1096_IXORI (other)
chain: HTTVTGSVEGKPNNPNEDIEVSYCRMNCTVENGVSSACSGDCVCVHRDNEPNGICVEITYFGDFGDPSQDPSIDEAAPRESVSKRRSNGES
Q: Does B10 bind [13]?
A: no binding (tested: 300 nM)

Q: Does B10 bind [8]?
A: no binding (tested: 300 nM)

B11: CCL1_HUMAN (ligand)
chain: KSMQVPFSRCCFSFAEQEIPLRAILCYRNTSSICSNEGLIFKLKRGKEACALDTVGWVQRHRKMLRHCPSKRK
Q: With B11 as the binder, how does the Kd [1] read?
A: 53.4 nM

Q: What about the Kd [16] of the same binder?
A: 160 nM

Q: What about the Kd [2] of the same binder?
A: 21.3 nM

Q: And the Kd [20]?
A: 70.5 nM

Q: And the Kd [3]?
A: 8.3 nM

Q: And the Kd [5]?
A: 21.2 nM

B12: P1132_IXORI (other)
chain: LSDEDELFSVEYCGTNCTKQDTGSWTTCSGNCTCYHEDGKKVGLCLSTEYTDFTKFPKPTSEEIANARPLPKREKTLN
Q: Does B12 bind [13]?
A: no binding (tested: 300 nM)

Q: Does B12 bind [8]?
A: no binding (tested: 300 nM)

Q: Does B12 bind [14]?
A: no binding (tested: 300 nM)

Q: And the “% cells over threshold fluorescence” value [15]?
A: 68%

B13: CCL22_HUMAN (ligand)
chain: GPYGANMEDSVCCRDYVRYRLPLRVVKHFYWTSDSCPRPGVVLLTFRDKEICADPRVPWVKMILNKLSQ
Q: B13 was tested. Which Kd [5] did it give?
A: 22.3 nM

B14: P1134_IXORI (other)
chain: NEEVFTVEYCGMNCTQKSDGTWTECSGKNKDCRCYHESDAREGLCLSTEYTDFSQFETPSNSDLEAATPRPRKTLYPVRNPHGPKTRGLGYDKRILRDRVKFLI
Q: Does B14 bind [8]?
A: no binding (tested: 300 nM)

B15: CCL24_HUMAN (ligand)
chain: VVIPSPCCMFFVSKRIPENRVVSYQLSSRSTCLKAGVIFTTKKGQQFCGDPKQEWVQRYMKNLDAKQKKASPRARAVA
Q: For B15, which Kd [5] is on record?
A: 7.39 nM

B16: CCL19_HUMAN (ligand)
chain: GTNDAEDCCLSVTQKPIPGYIVRNFHYLLIKDGCRVPAVVFTTLRGRQLCAPPDQPWVERIIQRLQRTSAKMKRRSS
Q: With B16 as the binder, how does the Kd [2] read?
A: 0.592 nM

Q: What about the Kd [4] of the same binder?
A: 14.4 nM

Q: And the Kd [5]?
A: 0.592 nM

— patent publication US20240034757A1 (OXFORD UNIVERSITY INNOVATION, published 2024)
